According to article PMC7763485, “Quantifying the Monomer–Dimer Equilibrium of Tubulin with Mass Photometry” (Journal of Molecular Biology, 2020):

Biological target: β-tubulin (porcine, UniProt P02554 1-445)
Experiment: mass photometry; label-free, in free solution; tubulin diluted in BRB80 buffer to 1 to 60 nM total monomer, no added GTP; 20 min equilibration after dilution (also measured immediately after dilution); Kd computed from counts of monomers and dimers in each single distribution; heterodimer to monomers
Settings: both partners purified

β-tubulin, sequence (P02554 whole entry): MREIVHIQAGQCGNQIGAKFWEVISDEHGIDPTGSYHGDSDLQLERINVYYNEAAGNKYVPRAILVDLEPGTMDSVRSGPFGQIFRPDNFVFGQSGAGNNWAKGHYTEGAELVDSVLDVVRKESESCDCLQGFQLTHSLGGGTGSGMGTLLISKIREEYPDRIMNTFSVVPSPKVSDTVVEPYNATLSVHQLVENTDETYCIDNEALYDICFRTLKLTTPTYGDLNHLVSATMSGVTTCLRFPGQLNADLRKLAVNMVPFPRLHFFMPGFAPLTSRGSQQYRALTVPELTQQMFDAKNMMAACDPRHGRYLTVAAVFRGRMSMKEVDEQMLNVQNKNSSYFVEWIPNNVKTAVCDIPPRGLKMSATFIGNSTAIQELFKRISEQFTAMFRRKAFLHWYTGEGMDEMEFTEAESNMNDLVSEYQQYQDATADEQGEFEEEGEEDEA

B1: α-tubulin (natural protein)
chain: MRECISIHVGQAGVQIGNACWELYCLEHGIQPDGQMPSDKTIGGGDDSFNTFFSETGAGKHVPRAVFVDLEPTVIDEVRTGTYRQLFHPEQLITGKEDAANNYARGHYTIGKEIIDLVLDRIRKLADQCTGLQGFSVFHSFGGGTGSGFTSLLMERLSVDYGKKSKLEFSIYPAPQVSTAVVEPYNSILTTHTTLEHSDCAFMVDNEAIYDICRRNLDIERPTYTNLNRLIGQIVSSITASLRFDGALNVDLTEFQTNLVPYPRAHFPLATYAPVISAEKAYHEQLSVAEITNACFEPANQMVKCDPRHGKYMACCLLYRGDVVPKDVNAAIATIKTKRTIQFVDWCPTGFKVGINYEPPTVVPGGDLAKVQRAVCMLSNTTAIAEAWARLDHKFDLMYAKRAFVHWYVGEGMEEGEFSEAREDMAALEKDYEEVGVDSVEGEGEEEGEEY
modifications: Brain-purified isotype mixture, isotype not named; TUBA1A taken as representative by convention. Native brain PTMs are likely but not specified. GTP at the non-exchangeable site as purified; the …
dimer:monomer ratio at 60 nM total tubulin: ~2
